Experimental data: the supplement of paper PMC9732359
± gives the uncertainty stated by the source.

Assay: protein stability index of a GFP-peptide fusion (yeast GPS) (PSI 1-4); higher = more stable; sorted into four equal gates, so the index is relative within each strain
Method in brief: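 Plasmids isolated from each sorting gate were PCR-amplified and Illumina-sequenced, and barcodes assigned the reads to strains. The gates, four of equal size, were set by GFP/Cherry fluorescence ratio on mid-log cultures in leucine-free medium. These cultures were yeast carrying a pooled library of tiled 17-residue yeast protein peptides fused downstream of GFP on a plasmid that also expresses Cherry. The protein stability index is the sum of every gate's read frequency times its gate number.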

| Sequence | protein stability index (doa10∆) | protein stability index (pdr5∆) | protein stability index (ubr1∆) | protein stability index (san1∆) |
| --- | --- | --- | --- | --- |
| AEEDSLLSGEDLTLDDI [YJL039C/NUP192] | 3.62 ± 0.13 | 3.4 ± 0.11 | 3.43 ± 0.13 | – |
| AEEKREAVIDEKLEVIA [ITC1] | 3.04 ± 0.15 | 2.62 ± 0.16 | 3.13 ± 0.082 | 3.03 ± 0.14 |
| AEFILKNRSTIFWGIRL [BRR2] | 2.73 ± 0.056 | 1.93 ± 0.063 | 1.77 ± 0.048 | 1.52 ± 0.089 |
| AEKFVPIDIFQIIRRVK [SIR3] | 1.57 ± 0.28 | 1.46 ± 0.15 | 1.16 ± 0.2 | – |
| AELLNEWHSSLTLKEAE [PUP2] | – | 2.93 ± 0.14 | 3.02 ± 0.17 | – |
| AENQTGESTVESEKLVT [RPC82] | 3.17 ± 0.089 | 3.29 ± 0.11 | 3.45 ± 0.29 | 3.15 ± 0.11 |
| AERDSQGGFYKQQDAEE [UBP6] | 3.35 ± 0.08 | 3.38 ± 0.089 | 3.28 ± 0.055 | 3.07 ± 0.077 |
| AESMCQELELPGEFVTA [SNF5] | 2.4 ± 0.061 | 2.53 ± 0.057 | 2.46 ± 0.081 | 2.62 ± 0.048 |
| AETLAEELINAAKGSST [RPS5] | 2.15 ± 0.083 | 2.51 ± 0.095 | 2.09 ± 0.088 | 2.32 ± 0.1 |
| AFDIELSEFGIKKMLHL [YCS4] | 3.11 ± 0.067 | 3.09 ± 0.088 | 3.12 ± 0.063 | 2.67 ± 0.1 |
| AFLALVDAGIALNSMCA [RRP46] | 2.27 ± 0.096 | 2.69 ± 0.11 | 2.59 ± 0.076 | 1.7 ± 0.08 |
| AFSFGAKSNEDKQDGTA [YJL041W/NSP1] | 3.24 ± 0.13 | 2.98 ± 0.16 | 3.44 ± 0.14 | 3 ± 0.2 |
| AFSYEQAQLRIDDKTQN [DIS3] | 3.32 ± 0.21 | 2.81 ± 0.14 | 2.25 ± 0.24 | 2.87 ± 0.12 |
| AGGGSNKSSVRPTGGAN [MED6] | 2.93 ± 0.09 | 3.12 ± 0.1 | 3.11 ± 0.077 | 2.79 ± 0.096 |
| AGLGKTNELWARLAILK [YGR119C/NUP57] | 2.38 ± 0.086 | 1.67 ± 0.091 | 3.56 ± 0.14 | 2.02 ± 0.2 |
| AGLTRSDRSLSEDLFAD [BRR2] | 3.04 ± 0.26 | – | – | 3.56 ± 0.2 |
| AGQNATVAVMSYSGYDI [RET1] | 1.32 ± 0.039 | 1.38 ± 0.045 | 1.66 ± 0.036 | 1.33 ± 0.086 |
| AGVLNGTLEYGTCFGGS [RET1] | 2.97 ± 0.051 | 2.91 ± 0.057 | 3.08 ± 0.043 | 2.99 ± 0.051 |
| AGVQGSKVSKQQAKGAF [RPL24B] | 3.08 ± 0.15 | 3.21 ± 0.11 | 3.21 ± 0.081 | 3.19 ± 0.055 |
| AHCILGIGGDHAKFSPV [RPC40] | 2.59 ± 0.085 | 2.82 ± 0.15 | 2.85 ± 0.068 | 2.41 ± 0.12 |
| AHKLKKSLDSIPMSKTI [FAS2] | 3 ± 0.083 | 3.01 ± 0.078 | 2.8 ± 0.083 | 3.01 ± 0.058 |
| AHRGIRHFWGLRVRGQH [RPS18A] | 2.82 ± 0.1 | 2.73 ± 0.083 | 2.66 ± 0.053 | 2.44 ± 0.081 |
| AHRNGIKKPKTYKYPSL [RPL29] | 3.42 ± 0.11 | 2.96 ± 0.15 | 2.95 ± 0.1 | 3.19 ± 0.28 |
| AHTPMLQMYSKIRRHPN [FAS1] | 2.81 ± 0.051 | 3.03 ± 0.063 | 2.95 ± 0.048 | 2.96 ± 0.06 |
| AIGCIERSDLLPYLSDT [YJR042W/NUP85] | 2.96 ± 0.095 | 2.96 ± 0.098 | 3.06 ± 0.13 | 2.8 ± 0.075 |
| AIKKKEKLLRHVDSLIE [SRB7] | 3.15 ± 0.094 | 2.88 ± 0.12 | 3.27 ± 0.1 | 3.2 ± 0.094 |
